Results as given in patent US9360484B2, “Anti-FcRH5 antibodies and immunoconjugates and methods of use” (Genentech, Inc., priority 2009, dated 2016).

Experiments:
human FcRH1-6 = experiment: FACS cross-reactivity analysis on SVT2 cells stably expressing gD tagged huFcRH1-6; type: binding; settings: 1.0 ug Ab (or 100 μl hybridoma supernatant) per 10^6 SVT2 cells expressing gD tagged huFcRH1-6
Procedure: To determine the cross-reactivity of FcRH5 antibodies, binding of IgG variants to SVT2 cells, expressing human FcRH1-6 were analyzed using FACS analysis.
Briefly, approximately 10^6 cells of SVT2 cells stably expressing gD tagged huFcRH1-6 in 100 μl were incubated with 1.0 ug of murine or chimeric Ab [Mu anti-gD (positive control), Mu anti-FcRH5 (1H4) (“mu1H4”), Mu anti-FcRH5 (4D10) (“mu4D10”), Mu anti-FcRH5 (6H1) (“mu6H1”), Mu anti-FcRH5 (7D11) (“mu7D11”), Ch anti-FcRH5 (7D11) (“ch7D11”), Mu anti-FcRH5 (8116) (“mu8H6”), Mu anti-FcRH5 (9E2) (“mu9E2”), or Mu anti-FcRH5 (13G9) (“mu13G9”)]. Incubation of SVT2 cells stably expressing the empty vector was incubated with the same antibodies and used as a negative control. PE conjugated Rat anti-MuIgG1, Rat anti-MuIgG2a+b, or Mu anti-HuIgG was used as the secondary detection antibody.
To further determine the cross-reactivity of FcRH5 antibodies, binding of IgG variant supernatants to SVT2 cells, expressing human FcRH1-6 were analyzed using FACS analysis.
Briefly, approximately 10^6 cells of SVT2 cells stably expressing gD tagged huFcRH1-6 were incubated with 1.0 μg purified Ms anti-gD antibody or 100 μl (concentration unknown) of murine Ab hybridoma supernatant (Mu anti-FcRH5 (10A8) (“mu10A8”), Mu anti-FcRH5 (10F5) (“mu10F5”)). […]

cynomolgus FcRH5 = experiment: Cyno cross-reactivity by FACS on stably transfected cells (SVT2 cells expressing cynoFcRH5); type: binding, cynomolgus monkey; settings: 1.0, 0.1 or 0.01 μg antibody per million SVT2 cells stably expressing cynoFcRH5
Procedure: For additional FACS analysis of FcRH5 antibodies, 1.0 μg, 0.1 μg or 0.01 μg of antibody was titrated per million cells of BJAB cells stably expressing huFcRH5 and SVT2 cells stably expressing cynoFcRH5. Briefly, approximately 10^6 cells in 100 μl were incubated with varying amounts (1.0 ug, 01. ug or 0.01 ug) of murine Ab mu1H4, mu6H1, mu7D11, mu9E2, mu10A8, mu10F5, or mu13G9 per million cells of BJAB cells stably expressing huFcRH5 and SVT2 cells stably expressing cynoFcRH5. Incubation with 1.0 ug/10^6 cells of the appropriate Mu IgG isotype control was used as a negative control. PE conjugated Rat anti-MuIgG1 or Rat anti-MuIgG2a+b was used as the secondary detection antibody.

human FcRH5 [1] = biological target: T1, human FcRH5 (Homo sapiens, UniProt Q96RD9); experiment: Affinity determination (Biacore analysis) of murine anti-FcRH5 IgGs; settings: murine IgG captured on chip, 25° C., 1:1 Langmuir binding model; read-out: Affinity (Biacore) to Hu antigen
T1 construct: vectors that expresses the His-tagged extra-cellular domain (ECDs) of the FcRH5/IRTA2 into CHO cells; His tag (HIS6); made in house; host or cells: CHO cells (transient transfection)
T1 sequence (Q96RD9 16-851 limits assumed): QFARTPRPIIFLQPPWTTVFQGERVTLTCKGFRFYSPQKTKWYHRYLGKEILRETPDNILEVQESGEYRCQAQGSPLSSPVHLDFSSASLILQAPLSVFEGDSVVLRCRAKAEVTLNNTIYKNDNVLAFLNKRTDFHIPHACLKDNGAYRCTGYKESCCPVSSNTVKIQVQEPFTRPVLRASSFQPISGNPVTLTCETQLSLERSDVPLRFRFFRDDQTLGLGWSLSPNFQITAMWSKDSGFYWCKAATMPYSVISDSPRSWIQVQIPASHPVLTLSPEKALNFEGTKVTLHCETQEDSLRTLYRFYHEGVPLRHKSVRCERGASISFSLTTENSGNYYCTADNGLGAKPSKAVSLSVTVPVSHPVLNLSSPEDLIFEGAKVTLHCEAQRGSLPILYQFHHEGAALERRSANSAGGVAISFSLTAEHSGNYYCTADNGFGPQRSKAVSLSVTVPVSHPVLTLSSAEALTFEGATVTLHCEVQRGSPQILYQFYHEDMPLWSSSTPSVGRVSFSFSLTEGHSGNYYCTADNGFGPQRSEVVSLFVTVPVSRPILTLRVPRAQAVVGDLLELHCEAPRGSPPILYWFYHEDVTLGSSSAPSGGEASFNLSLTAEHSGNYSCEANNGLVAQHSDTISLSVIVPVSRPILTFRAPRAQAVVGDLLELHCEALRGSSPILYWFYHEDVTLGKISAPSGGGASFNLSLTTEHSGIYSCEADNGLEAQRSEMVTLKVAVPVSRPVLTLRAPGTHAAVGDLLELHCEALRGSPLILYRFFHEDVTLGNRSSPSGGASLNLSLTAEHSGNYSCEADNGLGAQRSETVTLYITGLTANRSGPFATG
Procedure: The FcRH-binding affinities of IgGs were calculated from association and dissociation rate constants measured using a Biacore 2000 surface plasmon resonance system (BIAcore, Inc.). A biosensor chip was activated for covalent coupling of either anti-murine IgG (BR-1008-338) using N-ethyl-N′-(3-dimethyaminopropyl)-carbodiimide hydrochloride (EDC) and N-hydroxysuccinimide (NHS) according to the supplier's instruction (BIAcore, Inc.). Briefly, for each cycle of kinetic analysis, 5 ul of 100 nM IgG was captured on the chip, two-fold serial dilution of various FcRHs were injected at a flow rate of 20 ul/min for 150 sec. Antigen dissociation was monitored for 180 sec before regeneration. Equilibrium dissociation constants at 25° C. were calculated by fitting the data with a 1:1 Langmuir binding model. Running buffer was PBS with 0.05% Tween −20. All the antibodies bound antigen with sufficient affinity to be used as a therapeutic.

human FcRH5 [2] = biological target: T2, human FcRH5 (Homo sapiens, UniProt Q96RD9, G418D/L733P/S890P/V466I/Y267H); experiment: Affinity determination (Scatchard analysis) on cells expressing human FcRH5; type: binding; settings: by FACS and Scatchard analysis
T2 construct: expressed in transfected cells; host or cells: OPM2 multiple myeloma cells
T2 sequence (Q96RD9 16-977 Y267H/G418D/V466I/L733P/S890P): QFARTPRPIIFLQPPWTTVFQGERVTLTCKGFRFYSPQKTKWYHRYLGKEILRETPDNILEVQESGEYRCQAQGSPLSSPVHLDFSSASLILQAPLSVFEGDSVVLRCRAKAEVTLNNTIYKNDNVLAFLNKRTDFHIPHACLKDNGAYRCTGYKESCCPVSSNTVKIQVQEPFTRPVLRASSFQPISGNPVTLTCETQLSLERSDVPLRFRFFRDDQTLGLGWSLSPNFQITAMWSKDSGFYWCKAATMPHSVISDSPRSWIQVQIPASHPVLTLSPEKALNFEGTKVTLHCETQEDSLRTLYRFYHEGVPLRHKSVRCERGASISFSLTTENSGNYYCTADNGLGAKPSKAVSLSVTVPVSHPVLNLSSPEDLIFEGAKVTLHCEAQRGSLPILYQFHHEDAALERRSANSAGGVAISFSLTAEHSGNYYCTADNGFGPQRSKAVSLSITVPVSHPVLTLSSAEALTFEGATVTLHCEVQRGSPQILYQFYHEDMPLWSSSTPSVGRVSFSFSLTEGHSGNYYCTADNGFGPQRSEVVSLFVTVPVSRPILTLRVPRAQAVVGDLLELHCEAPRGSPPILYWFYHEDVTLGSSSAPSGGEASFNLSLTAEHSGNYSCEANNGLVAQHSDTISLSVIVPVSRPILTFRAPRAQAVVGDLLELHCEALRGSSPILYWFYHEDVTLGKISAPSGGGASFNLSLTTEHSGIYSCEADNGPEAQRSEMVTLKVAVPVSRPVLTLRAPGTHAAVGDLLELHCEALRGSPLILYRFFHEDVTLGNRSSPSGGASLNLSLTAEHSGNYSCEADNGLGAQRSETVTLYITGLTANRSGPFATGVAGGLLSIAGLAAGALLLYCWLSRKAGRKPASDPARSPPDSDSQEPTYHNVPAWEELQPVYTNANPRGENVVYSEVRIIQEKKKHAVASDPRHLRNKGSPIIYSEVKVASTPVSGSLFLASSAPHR
Procedure: To further determine binding of the FcRH5 murine antibodies and IgG clones, binding of iodinated IgG variants to OPM2 cells expressing human FcRH5 and SVT2 cells expressing cynomologous FcRH5, Scatchard analysis was performed.
After a four hour incubation at 4° C., cells were washed and cell pellet counts were read by a gamma counter (1470 WIZARD Automatic Gamma Counter; Perkin Elmer, Walthem, Mass.). All points were done in triplicate and counted for 10 minutes. The average CPM was used for Kd calculation using the New Ligand (Genentech, South San Francisco, Calif.) program.

[3] = system: OPM2.CMV.PD.FcRH5.5P.2 cells; experiment: In vitro cell proliferation assay (CellTiter-Glo Luminescent Cell Viability Assay); type: cell-based, human; settings: OPM2.CMV.PS.FcRH5.5P.2 cells, 3 days incubation
From the text: The homogeneous “add-mix-measure” format results in cell lysis and generation of a luminescent signal proportional to the amount of ATP present. The substrate, Beetle Luciferin, is oxidatively decarboxylated by recombinant firefly luciferase with concomitant conversion of ATP to AMP and generation of photons. Viable cells are reflected in relative luminescence units (RLU). Data can be recorded by luminometer or CCD camera imaging device. […] Alternatively, photons from luminescence can be counted in a scintillation counter in the presence of a scintillant.
3. The plates were equilibrated to room temperature for approximately 30 minutes.
5. The contents were mixed for 2 minutes on an orbital shaker to induce cell lysis.
6. The plate was incubated at room temperature for 10 minutes to stabilize the luminescence signal.

cynomolgus FcRH5, sequence (as listed by the source): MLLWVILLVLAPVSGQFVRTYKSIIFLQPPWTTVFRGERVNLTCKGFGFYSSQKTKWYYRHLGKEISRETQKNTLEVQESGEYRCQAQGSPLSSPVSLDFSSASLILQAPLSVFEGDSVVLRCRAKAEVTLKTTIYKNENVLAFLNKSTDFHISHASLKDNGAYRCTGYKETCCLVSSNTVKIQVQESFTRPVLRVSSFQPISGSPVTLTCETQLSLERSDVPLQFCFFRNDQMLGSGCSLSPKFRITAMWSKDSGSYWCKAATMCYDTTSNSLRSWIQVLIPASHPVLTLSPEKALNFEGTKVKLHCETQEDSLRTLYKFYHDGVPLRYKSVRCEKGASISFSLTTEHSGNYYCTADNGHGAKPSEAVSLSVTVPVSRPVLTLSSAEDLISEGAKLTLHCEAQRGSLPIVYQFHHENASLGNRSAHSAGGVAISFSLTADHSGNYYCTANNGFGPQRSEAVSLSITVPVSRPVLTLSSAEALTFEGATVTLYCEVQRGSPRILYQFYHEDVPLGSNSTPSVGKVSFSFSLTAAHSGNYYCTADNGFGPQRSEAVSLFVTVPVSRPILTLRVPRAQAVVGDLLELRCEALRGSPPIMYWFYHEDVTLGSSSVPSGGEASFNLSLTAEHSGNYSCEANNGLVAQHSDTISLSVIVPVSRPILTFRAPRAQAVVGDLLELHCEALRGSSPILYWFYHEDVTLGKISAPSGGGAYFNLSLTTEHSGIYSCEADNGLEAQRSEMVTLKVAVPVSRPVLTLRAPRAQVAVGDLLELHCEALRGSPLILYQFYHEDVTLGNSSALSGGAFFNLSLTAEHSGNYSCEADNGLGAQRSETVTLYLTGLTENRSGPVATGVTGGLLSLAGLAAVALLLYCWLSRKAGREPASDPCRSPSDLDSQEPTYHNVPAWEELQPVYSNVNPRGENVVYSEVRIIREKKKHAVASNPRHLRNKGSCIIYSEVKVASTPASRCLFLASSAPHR

B1: 10A8: murine anti-FcRH5 monoclonal antibody, light chain variable domain SEQ ID NO: 18, heavy chain variable domain SEQ ID NO: 20 (antibody, listed as Mus musculus, V domains shown)
VH: EVQLVESGGGLVKPGGSLKISCAASGFTFSSYAVSWVRQTPEKRLEWVATISSGGSLTFYLDSVRGRFTISRDNAKNTLYLQMSSLRSEDTAMYYCARPIPDYYALDYWGQGTSVTVSS
VL: DIVMTQSHKFMSTSVRDRVSITCKASQDVSTAVAWYQQKPGQSPKLLIYSASYRYTGVPDRFTGSGSGTDFTFTISSVQAEDLAVYYCQQHFSSPRTFGGGTKVEIKR
modifications: Variable Domain of Heavy Chain of Humanized Antibody (mu10A8)
specificity of binding among huFcRH1-6 by FACS (human FcRH1-6): specifically bind FcRH5 | cross reaction with cynomolgus FcRH5 by FACS analysis (cynomolgus FcRH5): cross react with cynomolgus FcRH5

B2: 13G9: murine monoclonal antibody binding human FcRH5 (antibody, V domains shown)
VH: EVQLVQSGPELKKPGETVKISCKASGYTFTNYGMNWVKQAPGKGLKWMGWVNTYTGEPTYTDDFKGRFAFSVETSASTVFLQINNLKNEDTATYFCARRSIPYYYAMDYWGQGTSLT
VL: DIVMTQSQKIMSTSVGDRVNVTCKASQNVGSNVAWYHQKPGQSPKALIYSASYRYSGVPDRFTGSGSGTDFTLTISNVQSEDLAEYFCQQYKTWTFGGGTKLEIKR
Kd (human FcRH5 [1]): 19 nM | cross reaction with cynomolgus FcRH5 by FACS analysis (cynomolgus FcRH5): cross react with cynomolgus FcRH5

B3: hu10A8 v1: humanized 10A8 antibody, variable domains SEQ ID NO: 19 and SEQ ID NO: 21 (antibody, V domains shown)
VH: EVQLVESGGGLVQPGGSLRLSCAASGFTFSSYAVSWVRQAPGKGLEWVATISSGGSLTFYLDSVRGRFTISRDNSKNTLYLQMNSLRAEDTAVYYCARPIPDYYALDYWGQGTLVTVSS
VL: DIQMTQSPSSLSASVGDRVTITCKASQDVSTAVAWYQQKPGKAPKLLIYSASYRYTGVPSRFSGSGSGTDFTLTISSLQPEDFATYYCQQHFSSPRTFGQGTKVEIKR
relative binding affinity of humanized version 1 and the chimera (human FcRH5 [2]): equivalent to the chimera | in vitro cell growth inhibition (in words) [3]: no in vitro cell growth inhibition
